In article PMC4316771:

Columns and labels:
[1] = biological target: FcRn-p3 (human FcRn fused to the amino terminal part of the bacteriophage p3 protein and the CVDE protein) (human) (UniProt P55899); test: ELISA; FcRn-p3 (0.1 μg/well) coated on Maxisorp plates in P6 (pH 6.0); IgG in HEK293-F supernatants aggregated with HRP F(ab')2 goat anti-human F(ab')2, diluted in P6 to 0.0375 μg/ml, 1 h at 30°C; results as ratio variant/WT
[2] = biological target: human FcγRIIIA-V158 (human); test: ELISA; C1q (0.5 μg/well) or FcγRIIIA-V158 (0.1 μg/well) coated on Maxisorp plates, FcγRIIA-R131 (0.1 μg/well) or FcγRIIB (0.4 μg/well) on nickel chelate plates; IgG in HEK293-F supernatants aggregated with HRP F(ab')2 goat anti-human F(ab')2, 0.5 μg/ml (0.25 μg/ml for FcγRIIIA-V158) in PBS, 1 h at 30°C; results as ratio variant/WT
[3] = biological target: human FcγRIIA-R131 (human); test: as above
[4] = biological target: human complement C1q; test: as above
[5] = biological target: human FcγRIIB (human) (UniProt P31994); test: as above
Sequence of UniProt P31994 (P31994 43-217): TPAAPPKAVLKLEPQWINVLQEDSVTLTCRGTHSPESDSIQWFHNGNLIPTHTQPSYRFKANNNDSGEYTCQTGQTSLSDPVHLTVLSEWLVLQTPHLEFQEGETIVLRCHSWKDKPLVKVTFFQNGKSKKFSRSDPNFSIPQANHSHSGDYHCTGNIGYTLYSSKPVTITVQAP

[6] = biological target: soluble human FcRn (human) (UniProt P55899); test: SPR; BIAcore X100, CM5 chip, recombinant human FcRn immobilised; IgG 1-200 nM flowed at 10 μl/min, 25°C, 50 mM sodium phosphate pH 6.0, 150 mM NaCl, 0.02% NaN3, 0.01% Tween-20; steady-state affinity model
[7] = biological target: FcRn-p3 (human FcRn fused to the amino terminal part of the bacteriophage p3 protein and the CVDE protein) (human) (UniProt P55899); test: ELISA; phage-ELISA at pH 6.0: FcRn-p3 coated on Maxisorp plates (0.25 μg/well); phage-Fc supernatants diluted 1/2 and 1/4 in P6 (100 mM sodium phosphate, 50 mM NaCl, pH 6.0) with 5% skimmed milk and 0.1% Tween-20; 2 h at 37°C; bound phages detected with HRP anti-M13 antibody; results as ratios of signals

| Substance | ELISA ratio variant/WT [1] | ELISA ratio variant/WT [2] | ELISA ratio variant/WT [3] | ELISA ratio variant/WT [4] | ELISA ratio variant/WT [5] | Kd [6] [nM] | phage-ELISA ratio/Fc-WT [7] |
| --- | --- | --- | --- | --- | --- | --- | --- |
| anti-CD20 IgG1 variant IgG-YTE (produced in HEK293-F cells) (antibody) | 2.06 | 0.27 | 0.27 | 0.64 | 0.42 |  |  |
| anti-CD20 IgG1 IgG-WT (produced in YB2/0 cells) (antibody) |  |  |  |  |  | 101 |  |
| anti-CD20 IgG1 variant IgG-QL (produced in HEK293-F cells) (antibody) | 2.39 | 0.59 | 0.99 | 2.47 | 0.95 |  |  |
| Fc variant Fc-QL (phage-displayed Fc 226-447) (domain or fragment) |  |  |  |  |  |  | 3.2 |
| Fc variant Fc-YTE (phage-displayed Fc 226-447) (domain or fragment) |  |  |  |  |  |  | 3.5 |
| anti-CD20 IgG1 variant IgG-LS (produced in HEK293-F cells) (antibody) | 4.46 | 1.3 | 2.52 | 2.39 | 0.97 |  |  |
